According to US20160264649A1:

Tests used:
Assay in all cases: cell-based or functional assay
[1] = biological target: HIV-1 98CN006 Env on pseudovirus (HIV-1)
[2] = biological target: HIV-1 MGRM-G-009 Env (HIV-1)
[3] = biological target: HIV-1 APV_17 Env on pseudovirus (HIV-1)
[4] = biological target: HIV-1 92BR020 Env (HIV-1)
[5] = biological target: HIV-1 MGRM-AE-006 Env (HIV-1)
[6] = biological target: HIV-1 MGRM-D-002 Env (HIV-1)
[7] = biological target: HIV-1 MGRM-C-009 Env on pseudovirus (HIV-1)
[8] = biological target: HIV-1 MGRM-C-002 Env on pseudovirus (HIV-1)
[9] = biological target: HIV-1 MGRM-G-016 Env (HIV-1)
HIV-1 APV-6 Env (HIV-1) = biological target: HIV-1 APV-6 Env (HIV-1)
[10] = biological target: HIV-1 MGRM-F1-017 Env (HIV-1)
[11] = biological target: HIV-1 MGRM-C-025 Env on pseudovirus (HIV-1)
[12] = biological target: HIV-1 MGRM-AE-007 Env (HIV-1)
[13] = biological target: HIV-1 MGRM-C-008 Env on pseudovirus (HIV-1)
[14] = biological target: HIV-1 MGRM-D-004 Env (HIV-1)
[15] = biological target: HIV-1 MGRM-AG-013 Env (HIV-1)
[16] = biological target: HIV-1 MGRM-Chronic-B-008 Env on pseudovirus (HIV-1)
aMLV envelope = biological target: aMLV envelope
[17] = biological target: HIV-1 VLGCB3 Env on pseudovirus (HIV-1)
[18] = biological target: HIV-1 MGRM-G-025 Env (HIV-1)
[19] = biological target: HIV-1 MGRM-Chronic-B-001 Env on pseudovirus (HIV-1)
[20] = biological target: HIV-1 MGRM-D-005 Env (HIV-1)
[21] = biological target: HIV-1 MGRM-C-020 Env on pseudovirus (HIV-1)
[22] = biological target: HIV-1 MGRM-C-012 Env on pseudovirus (HIV-1)
[23] = biological target: HIV-1 MGRM-D-008 Env (HIV-1)
[24] = biological target: HIV-1 MGRM-Chronic-B-023 Env on pseudovirus (HIV-1)
[25] = biological target: HIV-1 MGRM-G-013 Env (HIV-1)
[26] = biological target: HIV-1 MGRM-AE-008 Env (HIV-1)
[27] = biological target: HIV-1 94UG103 Env (HIV-1)
[28] = biological target: HIV-1 97ZA012 Env on pseudovirus (HIV-1)
[29] = biological target: HIV-1 MGRM-AE-002 Env (HIV-1)
[30] = biological target: HIV-1 MGRM-C-010 Env on pseudovirus (HIV-1)
[31] = biological target: HIV-1 MGRM-F1-004 Env (HIV-1)
[32] = biological target: HIV-1 MGRM-AG-011 Env (HIV-1)
[33] = biological target: HIV-1 92TH021 Env (HIV-1)
[34] = biological target: HIV-1 MGRM-AG-002 Env (HIV-1)
[35] = biological target: HIV-1 MGRM-C-019 Env on pseudovirus (HIV-1)
[36] = biological target: HIV-1 MGRM-Chronic-B-004 Env on pseudovirus (HIV-1)
HIV-1 APV-17 Env (HIV-1) = biological target: HIV-1 APV-17 Env (HIV-1)
[37] = biological target: HIV-1 MGRM-AG-005 Env (HIV-1)
[38] = biological target: HIV-1 MGRM-C-001 Env on pseudovirus (HIV-1)
HIV-1 APV-13 Env (HIV-1) = biological target: HIV-1 APV-13 Env (HIV-1)
[39] = biological target: HIV-1 MGRM-F1-018 Env (HIV-1)
[40] = biological target: HIV-1 MGRM-D-016 Env (HIV-1)
[41] = biological target: HIV-1 MGRM-G-015 Env (HIV-1)
[42] = biological target: HIV-1 MGRM-C-022 Env on pseudovirus (HIV-1)
[43] = biological target: HIV-1 MGRM-F1-015 Env (HIV-1)
[44] = biological target: HIV-1 MGRM-A-004 Env (HIV-1)
[45] = biological target: HIV-1 MGRM-A-008 Env (HIV-1)
[46] = biological target: HIV-1 MGRM-A-001 Env (HIV-1)
[47] = biological target: HIV-1 MGRM-A-005 Env (HIV-1)
[48] = biological target: HIV-1 MGRM-A-012 Env (HIV-1)

Substance: 2F5 (antibody)
- IC50 [1]: > 50 µg/mL
- IC50 (µg/ml), pseudovirus neutralization [2]: 7.21 µg/mL
- IC50 [3]: 4.61 µg/mL
- neutralization IC50 [4]: > 50 µg/mL
- neutralization IC90 [4]: > 50 µg/mL
- IC50 (µg/ml), pseudovirus neutralization [5]: 0.18 µg/mL
- IC50 (µg/ml), pseudovirus neutralization [6]: 24.6 µg/mL
- IC50 [7]: > 50 µg/mL
- IC50 [8]: 44.7 µg/mL
- IC50 (µg/ml), pseudovirus neutralization [9]: 16.8 µg/mL
- neutralization IC50 (HIV-1 APV-6 Env (HIV-1)): 0.1 µg/mL
- IC50 (pseudovirus neutralization) [10]: > 50 µg/mL
- IC50 [11]: > 50 µg/mL
- IC50 (µg/ml), pseudovirus neutralization [12]: 0.07 µg/mL
- IC50 [13]: > 50 µg/mL
- IC50 (µg/ml), pseudovirus neutralization [14]: 2.3 µg/mL
- IC50 (µg/ml), pseudovirus neutralization [15]: 1.79 µg/mL
- IC50 [16]: > 50 µg/mL
- neutralization IC50 (aMLV envelope): > 50 µg/mL
- neutralization IC90 (aMLV envelope): > 50 µg/mL
- IC50 [17]: > 50 µg/mL
- IC50 (µg/ml), pseudovirus neutralization [18]: > 50 µg/mL
- IC50 [19]: 0.55 µg/mL
- IC50 (µg/ml), pseudovirus neutralization [20]: > 50 µg/mL
- IC50 [21]: > 50 µg/mL
- IC50 [22]: > 50 µg/mL
- IC50 (µg/ml), pseudovirus neutralization [23]: > 50 µg/mL
- IC50 [24]: 0.1 µg/mL
- IC50 (µg/ml), pseudovirus neutralization [25]: 0.59 µg/mL
- IC50 (µg/ml), pseudovirus neutralization [26]: > 50 µg/mL
- neutralization IC50 [27]: 3.79 µg/mL
- neutralization IC90 [27]: 46.6 µg/mL
- IC50 [28]: > 50 µg/mL
- IC50 (µg/ml), pseudovirus neutralization [29]: 0.31 µg/mL
- IC50 [30]: > 50 µg/mL
- IC50 (pseudovirus neutralization) [31]: 4.31 µg/mL
- IC50 (µg/ml), pseudovirus neutralization [32]: > 50 µg/mL
- neutralization IC50 [33]: 1.51 µg/mL
- neutralization IC90 [33]: 18.8 µg/mL
- IC50 (µg/ml), pseudovirus neutralization [34]: 0.54 µg/mL
- IC50 [35]: > 50 µg/mL
- IC50 [36]: 2.41 µg/mL
- neutralization IC50 (HIV-1 APV-17 Env (HIV-1)): 2 µg/mL
- IC50 (µg/ml), pseudovirus neutralization [37]: > 50 µg/mL
- IC50 [38]: > 50 µg/mL
- neutralization IC50 (HIV-1 APV-13 Env (HIV-1)): 2.8 µg/mL
- IC50 (pseudovirus neutralization) [39]: 3.91 µg/mL
- IC50 (µg/ml), pseudovirus neutralization [40]: 9.85 µg/mL
- IC50 (µg/ml), pseudovirus neutralization [41]: 0.43 µg/mL
- IC50 [42]: > 50 µg/mL
- IC50 (pseudovirus neutralization) [43]: 0.1 µg/mL
- neutralization IC50 [44]: 7.49 µg/mL
- neutralization IC50 [45]: > 50 µg/mL
- neutralization IC50 [46]: > 50 µg/mL
- neutralization IC50 [47]: 5.7 µg/mL
- neutralization IC50 [48]: 2.36 µg/mL
